# Experimental data published in publication PMC3411929 (Journal of structural biology, 2012).
# B1: human spastin amino acids 228-616 containing the E442Q mutation (domain or fragment, UniProt Q9UBP0 228-616, looked up)
# chain: ESGAVPKRKDPLTHTSNSLPRSKTVMKTGSAGLSGHHRAPSYSGLSMVSGVKQGSGPAPTTHKGTPKTNRTNKPSTPTTATRKKKDLKNFRNVDSNLANLIMNEIVDNGTAVKFDDIAGQDLAKQALQEIVILPSLRPELFTGLRAPARGLLLFGPPGNGKTMLAKAVAAESNATFFNISAASLTSKYVGEGEKLVRALFAVARELQPSIIFIDQVDSLLCERREGEHDASRRLKTEFLIEFDGVQSAGDDRVLVMGATNRPQELDEAVLRRFIKRVYVSLPNEETRLLLLKNLLCKQGSPLTQKELAQLARMTDGYSGSDLTALAKDAALGPIRELKPEQVKNMSASEMRNIRLSDFTESLKKIKRSVSPQTLEAYIRWNKDFGDTTV
# Biological target: the molecule itself
# Assay: SEC
protein,measurement,value
B1,stoichiometry N,6
